Test results as given in patent publication US20240287172A1 (SCIRHOM, published 2024).

T1: hiR2-FL-V434E-T7 (human, UniProt Q6PJF5 1-856)
T1 sequence: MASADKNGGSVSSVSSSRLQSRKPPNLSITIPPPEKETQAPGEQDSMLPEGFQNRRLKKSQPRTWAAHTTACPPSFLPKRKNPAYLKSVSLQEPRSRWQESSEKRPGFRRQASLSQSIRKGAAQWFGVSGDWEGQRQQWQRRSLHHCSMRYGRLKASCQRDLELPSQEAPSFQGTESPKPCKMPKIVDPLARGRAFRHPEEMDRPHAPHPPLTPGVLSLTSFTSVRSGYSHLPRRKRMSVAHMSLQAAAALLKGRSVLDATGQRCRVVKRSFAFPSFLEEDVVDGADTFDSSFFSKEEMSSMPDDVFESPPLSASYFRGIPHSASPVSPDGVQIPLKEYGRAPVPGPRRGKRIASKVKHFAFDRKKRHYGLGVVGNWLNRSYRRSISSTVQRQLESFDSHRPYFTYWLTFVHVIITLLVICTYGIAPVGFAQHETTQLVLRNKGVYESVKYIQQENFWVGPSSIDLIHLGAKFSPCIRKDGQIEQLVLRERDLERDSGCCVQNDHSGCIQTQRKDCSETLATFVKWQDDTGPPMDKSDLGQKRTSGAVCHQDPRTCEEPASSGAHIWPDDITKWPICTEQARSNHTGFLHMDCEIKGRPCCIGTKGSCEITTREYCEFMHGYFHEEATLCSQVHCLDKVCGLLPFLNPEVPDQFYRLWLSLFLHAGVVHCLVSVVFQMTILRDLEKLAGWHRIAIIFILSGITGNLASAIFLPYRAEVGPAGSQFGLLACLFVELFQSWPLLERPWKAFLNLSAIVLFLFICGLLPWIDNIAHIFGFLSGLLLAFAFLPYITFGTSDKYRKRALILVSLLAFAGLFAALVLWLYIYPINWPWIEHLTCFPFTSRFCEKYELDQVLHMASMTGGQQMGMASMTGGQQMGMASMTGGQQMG

T2: hiR2-FL-T436V-T7 (human, UniProt Q6PJF5 1-856)
T2 sequence: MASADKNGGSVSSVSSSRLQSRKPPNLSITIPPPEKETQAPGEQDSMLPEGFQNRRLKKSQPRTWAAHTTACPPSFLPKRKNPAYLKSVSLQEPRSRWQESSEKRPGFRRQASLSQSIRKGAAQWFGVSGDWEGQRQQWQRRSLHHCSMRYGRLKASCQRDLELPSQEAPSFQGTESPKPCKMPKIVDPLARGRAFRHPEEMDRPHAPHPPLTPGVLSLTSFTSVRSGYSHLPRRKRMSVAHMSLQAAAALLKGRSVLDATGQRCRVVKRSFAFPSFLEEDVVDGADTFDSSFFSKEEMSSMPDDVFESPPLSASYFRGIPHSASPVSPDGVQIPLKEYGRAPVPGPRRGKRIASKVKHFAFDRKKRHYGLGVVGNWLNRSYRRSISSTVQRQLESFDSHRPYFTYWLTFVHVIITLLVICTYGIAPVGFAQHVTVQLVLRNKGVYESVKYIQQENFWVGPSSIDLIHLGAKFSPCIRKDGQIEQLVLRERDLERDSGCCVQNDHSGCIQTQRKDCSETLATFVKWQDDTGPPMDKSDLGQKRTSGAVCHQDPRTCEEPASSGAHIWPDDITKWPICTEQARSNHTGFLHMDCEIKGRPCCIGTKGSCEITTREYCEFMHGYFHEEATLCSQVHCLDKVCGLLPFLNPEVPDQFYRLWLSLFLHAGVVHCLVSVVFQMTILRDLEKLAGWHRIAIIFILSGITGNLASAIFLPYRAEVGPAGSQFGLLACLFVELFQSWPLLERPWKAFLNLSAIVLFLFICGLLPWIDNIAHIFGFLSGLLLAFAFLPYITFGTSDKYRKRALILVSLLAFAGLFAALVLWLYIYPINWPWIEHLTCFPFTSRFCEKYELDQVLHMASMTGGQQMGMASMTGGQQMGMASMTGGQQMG

B1: antibody 48 (antibody, V domains shown)
VH: QVQLQQSGTELVRPGTSVKVSCKASGYAFTNYLIEWVKQRPGQGLEWIGVINPGSGFTKYNEKFKGKATLTADKSSSTVYMHLSSLTSEDSAVYFCARGLYRAMDYWGQGTSVTVSS
VL: DIQMTQSPASQSASLGESVTITCLASQTIATWLAWYQQKPGKSPQLLIYGATTLADGVPSRFSGGGSGTKFSFKISSLQAEDFVSYYCQQLYSTPYTFGGGTKLEIK
notes: mouse IgG, kappa light chain; also called clone #48; purified antibody 48
B2: antibody 50 (antibody, V domains shown)
VH: QVQLQQSGAELVRPGASVKVSCKASGYAFSNYLIEWVKQRPGQGLEWIGVINPGSGFTKYNEKFKGKATLTADKSSSTAYMQLSSLTSEDSAVYFCARGLYRAMDYWGQGTSVTVSS
VL: DIQMTQSPASQSASLGESVTITCLASQTIGTWLAWYQQKPGKSPQLLIYAAASLADGVPSRFSGGGSGTKFSFKISSLQAEDFVNYYCQQIYSTPYTFGGGTKLEIK
notes: mouse IgG, kappa light chain; also called clone #50; purified antibody 50

Key:
hiR2-FL-V434E-T7 = target: T1, hiR2-FL-V434E-T7; assay: FACS, MEF-DKO cells, 3 µg/ml
Description: (§1) In brief, immortalized MEF-DKO-hiR2-FL-A431S-T7, MEF-DKO-hiR2-FL-V434E-T7, MEF-DKO-hiR2-FL-T436V-T7, MEF-DKO-hiR2-FL-Q437D-T7, MEF-DKO-hiR2-FL-L438S-T7, MEF-DKO-hiR2-FL-S448N-T7, MEF-DKO-hiR2-FL-I452V-T7, MEF-DKO-hiR2-FL-I464E-T7, MEF-DKO-hiR2-FL-D465A-T7, MEF-DKO-hiR2-FL-I477M-T7, MEF-DKO-hiR2-FL-K479Q-T7, MEF-DKO-hiR2-FL-G481P-T7, MEF-DKO-hiR2-FL-I483V-T7, MEF-DKO-hiR2-FL-E484H-T7, MEF-DKO-hiR2-FL-Q485S-T7, MEF-DKO-hiR2-FL-L486F-T7, MEF-DKO-hiR2-FL-V487I-T7, MEF-DKO-hiR2-FL-R489S-T7, MEF-DKO-hiR2-FL-E490A-T7, MEF-DKO-hiR2-FL-D492E-T7, MEF-DKO-hiR2-FL-L493R-T7, MEF-DKO-hiR2-FL-R495K-T7 and MEF-DKO-hiR2-FL-D496H-T7 cells were harvested with 10 mM EDTA in PBS, washed and resuspended in FACS buffer (PBS, 3% FBS, 0.05% sodium azide), and seeded in Nunc U-bottom 96-well plates (Thermo Fisher Scientific, USA) at approximately 1×10⁵ cells per well. To pellet cells and remove supernatants, the plates were centrifuged at 1,500 rpm and 4° C. for 3 minutes. For primary staining, cells were resuspended in 100 μl per well of either FACS buffer alone (controls) or the purified antibodies 3, 5, 16, 22, 34, 42, 43, 44, 48, and 50 of the invention at 3 μg/ml in FACS buffer and incubated on ice for 1 hour. Afterwards, plates were centrifuged at 1,500 rpm and 4° C. for 3 minutes and washed twice with 200 μl per well of FACS buffer. For secondary staining, cells were spun down and resuspended in 100 μl per well of PE-conjugated goat anti-mouse IgG F(ab′)2 detection fragment (Dianova, Germany) diluted 1:100 in FACS buffer. Protected from light, the cell suspensions were incubated on ice for 1 hour. Plates were then centrifuged at 1,500 rpm and 4° C. for 3 minutes and washed three times with 200 μl per well of FACS buffer. Finally, cells were resuspended in 150 μl per well of FACS buffer and analyzed using a BD Accuri™ C6 Plus flow cytometer (Becton Dickinson, Germany).

hiR2-FL-T436V-T7 = target: T2, hiR2-FL-T436V-T7; assay: FACS, MEF-DKO cells, 3 µg/ml
Description: as §1

Row | Binder | loss of binding vs wild type (hiR2-FL-V434E-T7) [%] | loss of binding vs wild type (hiR2-FL-T436V-T7) [%]
1 | B1 | ≥ 30 | ≥ 30
2 | B2 | ≥ 30 | ≥ 30
